The source of these data is publication PMC3249085 (The Journal of Biological Chemistry, 2011).

The series deals with the molecule itself. In words: small angle neutron scattering.

B1: outer membrane protein OmpF (receptor)
chain: AEIYNKDGNKVDLYGKAVGLHYFSKGNGENSYGGNGDMTYARLGFKGETQINSDLTGYGQWEYNFQGNNSEGADAQTGNKTRLAFAGLKYADVGSFDYGRNYGVVYDALGYTDMLPEFGGDTAYSDDFFVGRVGGVATYRNSNFFGLVDGLNFAVQYLGKNERDTARRSNGDGVGGSISYEYEGFGIVGAYGAADRTNLQEAQPLGNGKKAEQWATGLKYDANNIYLAANYGETRNATPITNKFTNTSGFANKTQDVLLVAQYQFDFGLRPSIAYTKSKAKDVEGIGDVDLVNYFEVGATYYFNKNMSTYVDYIINQIDSDNKLGVGSDDTVAVGIVYQF
modifications: partially deuterated (d-OmpF) in the SANS samples; hydrogenous or deuterated in the neutron reflection samples
B1: the stoichiometry N (in general, a count of units in the complex or per binding partner) is 3.
